Measured values published in publication doi:10.1101/544239 (bioRxiv, 2019).

T1: CheW-CheA complex of Helicobacter pylori (Helicobacter pylori (G27 strain) | …, UniProt B5Z859 1-807; O25152 1-165)
T1 sequence (looked up) 1: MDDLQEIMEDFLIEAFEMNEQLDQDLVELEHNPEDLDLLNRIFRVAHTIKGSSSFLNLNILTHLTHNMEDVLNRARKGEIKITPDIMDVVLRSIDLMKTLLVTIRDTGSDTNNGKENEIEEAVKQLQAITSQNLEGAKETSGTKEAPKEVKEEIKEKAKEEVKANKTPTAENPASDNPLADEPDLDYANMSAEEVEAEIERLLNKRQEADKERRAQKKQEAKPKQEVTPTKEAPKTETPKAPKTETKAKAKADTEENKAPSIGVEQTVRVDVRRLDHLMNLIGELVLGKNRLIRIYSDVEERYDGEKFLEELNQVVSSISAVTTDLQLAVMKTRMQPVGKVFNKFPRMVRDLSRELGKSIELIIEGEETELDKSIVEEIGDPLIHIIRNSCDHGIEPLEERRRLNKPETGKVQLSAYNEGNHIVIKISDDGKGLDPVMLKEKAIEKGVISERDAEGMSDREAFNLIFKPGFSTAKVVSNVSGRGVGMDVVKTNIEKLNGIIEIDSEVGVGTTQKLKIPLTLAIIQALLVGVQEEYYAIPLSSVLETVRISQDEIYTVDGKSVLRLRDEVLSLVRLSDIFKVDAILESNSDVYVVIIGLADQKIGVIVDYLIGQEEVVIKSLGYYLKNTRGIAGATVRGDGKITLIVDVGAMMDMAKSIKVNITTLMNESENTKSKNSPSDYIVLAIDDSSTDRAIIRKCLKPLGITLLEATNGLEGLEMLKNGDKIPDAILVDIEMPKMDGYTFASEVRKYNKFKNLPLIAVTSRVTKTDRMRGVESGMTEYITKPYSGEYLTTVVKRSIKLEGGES
T1 sequence (looked up) 2: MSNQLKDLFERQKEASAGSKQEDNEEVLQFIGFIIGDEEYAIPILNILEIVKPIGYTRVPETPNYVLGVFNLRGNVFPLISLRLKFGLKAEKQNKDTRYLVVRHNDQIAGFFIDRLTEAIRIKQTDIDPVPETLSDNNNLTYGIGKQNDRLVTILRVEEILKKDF

T2: Helicobacter pylori histidine kinase CheA, strain G27 (Helicobacter pylori (G27 strain), UniProt B5Z859 1-807)
T2 sequence (looked up): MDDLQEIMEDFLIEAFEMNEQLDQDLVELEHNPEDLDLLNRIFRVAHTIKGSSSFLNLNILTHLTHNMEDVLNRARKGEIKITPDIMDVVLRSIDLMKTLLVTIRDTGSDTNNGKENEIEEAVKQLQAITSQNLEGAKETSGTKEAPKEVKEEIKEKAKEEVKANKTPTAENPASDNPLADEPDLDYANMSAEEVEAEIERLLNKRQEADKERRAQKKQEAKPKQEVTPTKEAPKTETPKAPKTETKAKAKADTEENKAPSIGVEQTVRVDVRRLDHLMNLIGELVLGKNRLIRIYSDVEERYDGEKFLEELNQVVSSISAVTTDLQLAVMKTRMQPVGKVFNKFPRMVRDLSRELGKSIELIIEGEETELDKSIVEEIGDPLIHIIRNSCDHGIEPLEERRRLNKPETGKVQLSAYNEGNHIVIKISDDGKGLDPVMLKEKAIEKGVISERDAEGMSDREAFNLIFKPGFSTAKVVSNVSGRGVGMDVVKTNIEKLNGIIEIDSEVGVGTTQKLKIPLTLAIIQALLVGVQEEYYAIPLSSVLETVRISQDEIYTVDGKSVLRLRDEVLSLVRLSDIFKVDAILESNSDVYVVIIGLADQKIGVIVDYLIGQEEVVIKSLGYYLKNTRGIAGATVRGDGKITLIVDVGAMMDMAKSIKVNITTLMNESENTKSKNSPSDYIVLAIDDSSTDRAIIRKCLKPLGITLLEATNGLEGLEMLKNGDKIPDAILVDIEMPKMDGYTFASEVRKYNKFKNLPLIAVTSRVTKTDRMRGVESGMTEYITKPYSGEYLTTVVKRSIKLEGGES

B1: Helicobacter pylori transducer-like protein D (TlpD), strain SS1 (receptor)
chain: not shown
B2: Helicobacter pylori scaffold protein CheW, strain SS1 (natural protein, Helicobacter pylori (SS1 strain), UniProt O25152 1-165, looked up)
chain: MSNQLKDLFERQKEASAGSKQEDNEEVLQFIGFIIGDEEYAIPILNILEIVKPIGYTRVPETPNYVLGVFNLRGNVFPLISLRLKFGLKAEKQNKDTRYLVVRHNDQIAGFFIDRLTEAIRIKQTDIDPVPETLSDNNNLTYGIGKQNDRLVTILRVEEILKKDF

Columns and labels:
AUC = target: the molecule itself; test: AUC
[1] = target: T1, CheW-CheA complex of Helicobacter pylori; test: kinase activity titration
[2] = target: T2, Helicobacter pylori histidine kinase …; test: kinase activity titration

Binder | Kd (AUC) | stoichiometry N (AUC) | Kd [1] | Kd [2]
B1 | 0.15 µM | 2 | 15.2 µM | –
B2 | – | – | – | 14.6 µM
